# Assay results reported in article PMC9779004, “Structural, Thermodynamic and Enzymatic Characterization of N,N-Diacetylchitobiose Deacetylase from Pyrococcus chitonophagus” (International Journal of Molecular Sciences, 2022).
# Experiments:
# [1] = target: N,N-diacetylchitobiose deacetylase from Pyrococcus chitonophagus (Pyrococcus chitonophagus DSM 10152); assay: crystal structure; three crystal forms: P2(1) with (GlcNAc)2 (two hexamers in the asymmetric unit), P3(2)21 unliganded (half a hexamer, other half by the crystallographic two-fold axis), P2(1)2(1)2(1) (one hexamer); data at 100 K
# [2] = target: N,N-diacetylchitobiose deacetylase from Pyrococcus chitonophagus (Pyrococcus chitonophagus DSM 10152); assay: SEC-SAXS; stock solution 4.7 mg/mL, Superdex 200 Increase 5/150 GL, injected at 4 °C, 0.35 mL/min; main peak fitted with the crystallographic hexamer, chi^2 = 1.2
# [3] = target: N,N-diacetylchitobiose deacetylase from Pyrococcus chitonophagus (Pyrococcus chitonophagus DSM 10152); assay: SAXS; batch mode, dilution series 0.2-3.48 mg/mL in Buffer A (20 mM TRIS pH 7.4, 200 mM NaCl), room temperature; curves fitted with the crystallographic hexamer and a 'dodecameric' model (CRYSOL, OLIGOMER)
# [4] = target: T1, Pch-Dac (N,N-diacetylchitobiose deacetylase) (Thermococcus chitonophagus, UniProt A0A160VQZ8); assay: ITC total heat (Happ) and 1H NMR; assay type: biochemical; conditions: ITC pH 6.5, 75 °C; NMR HEPES pH 7.5; non-reducing-end deacetylation
# T1 construct: gene CHITON_0574; full gene in pET151D-TOPO, N-terminal 6xHis-TEV tag cut, expressed in E. coli BL21-Magic
# T1 sequence (A0A160VQZ8 1-267): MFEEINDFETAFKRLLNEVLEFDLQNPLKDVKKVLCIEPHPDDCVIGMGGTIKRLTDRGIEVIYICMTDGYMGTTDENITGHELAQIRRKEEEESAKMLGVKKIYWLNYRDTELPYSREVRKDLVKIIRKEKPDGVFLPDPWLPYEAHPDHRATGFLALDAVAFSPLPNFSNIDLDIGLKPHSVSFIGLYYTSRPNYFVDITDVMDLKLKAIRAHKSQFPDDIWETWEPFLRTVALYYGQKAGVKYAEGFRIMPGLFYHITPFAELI
stoichiometry N [1],stoichiometry N [2],percent of the scattering accounted for by the hexameric model [3] [%],stoichiometry N [3],Compound,ITC total heat (Happ) and 1H NMR [4]
6,6,84 to 87,6,"N,N-diacetylchitobiose deacetylase from Pyrococcus chitonophagus (enzyme)",–
–,–,–,–,"CC(=O)N[C@H]1[C@H](O[C@H]2[C@H](O)[C@@H](N)C(O)O[C@@H]2CO)O[C@H](CO)[C@@H](O)[C@@H]1O (stereo partly drawn) [GlcNAc-GlcN, 1,4-β-D-acetyl glucosaminyl-D-N-glucosamine]",Reaction was observed only in the case of GlcNAc-GlcN
